Laboratory results as given in publication PMC8225110, “The Divergent Key Residues of Two Agrobacterium fabrum (tumefaciens) CheY Paralogs Play a Key Role in Distinguishing Their Functions” (Microorganisms, 2021).

Target: T1, GST-FliM fusion protein (Agrobacterium fabrum C58, UniProt Q44457 1-321)
T1 construct: Flagellar motor switch protein FliM (atu0561) of Agrobacterium fabrum C58; Cloned in pGEX-4T-1; not shown: GST, N-terminal, kept
T1 sequence (looked up): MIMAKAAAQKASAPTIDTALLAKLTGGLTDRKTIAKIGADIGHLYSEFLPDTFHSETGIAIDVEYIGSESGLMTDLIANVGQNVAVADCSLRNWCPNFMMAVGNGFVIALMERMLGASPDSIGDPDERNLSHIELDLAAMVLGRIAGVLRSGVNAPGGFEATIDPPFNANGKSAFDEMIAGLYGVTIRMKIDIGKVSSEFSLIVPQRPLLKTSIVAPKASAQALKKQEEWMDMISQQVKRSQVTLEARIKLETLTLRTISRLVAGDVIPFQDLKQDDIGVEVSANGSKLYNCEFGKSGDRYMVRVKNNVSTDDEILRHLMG
Test: pull-down; GST-FliM on glutathione-Sepharose 4B beads, crude extract of CheY-6×his in PBS with MgCl2 and acetyl phosphate (phosphorylating conditions), 4 °C, 1 h; Western blot with anti-6×his antibody
Conditions: one partner purified

B1: CheY2-6×his fusion protein, phosphorylated with acetyl phosphate (natural protein, Agrobacterium fabrum C58, UniProt Q7D1A5 1-129, looked up)
chain: MSLAEKIKVLIVDDQVTSRLLLSDALTQLGFKQITSAGDGEQGLKIMEQQPHHLVISDFNMPKMDGLGFLHAVRANPTTKKAAFIILTAQGDRALVQKAAQLGANNVLAKPFTIDKMRAAIEAVFGSLK
modifications: phosphorylated by acetyl phosphate (residue not given)
notes: Chemotaxis response regulator CheY2 (atu0520) of Agrobacterium fabrum C58; Same construct as m11; the extent of phosphorylation was not measured; also called CheY2-P; source: E. coli BL21 (DE3), crude extract, with acetyl phosphate (phosphorylating conditions); not shown: His6, C-terminal, kept
fold band intensity pulled down, against CheY1-6×his: ~5 fold
